This passage reports IC50 neutralization and Primary Neutralization Index (B cell culture supernatant) results from US20240132578A1.

Where “and” joins values, the source holds several entries; their conditions need not be identical. Equal values may be shown once. Bounds are passed on as bounds.

Common to all, as to experiment: cell-based or functional assay
Experiment [1] concerns the target HIV-1 MGRM-C-026 envelope glycoprotein (Env) on pseudovirus (HIV-1).
The target in experiment [2] is HIV-1 NL43 envelope glycoprotein (Env) on pseudovirus (HIV-1).
The target in experiment [3] is HIV-1 MGRM-C-028 envelope glycoprotein (Env) on pseudovirus (HIV-1).
Experiment [4] deals with HIV-1 93UG077 envelope glycoprotein (Env) on pseudovirus (HIV-1).
In experiment [5] the target is HIV-1 JRCSF envelope glycoprotein (Env) on pseudovirus (HIV-1) (UniProt P20871).
In experiment [6] the target is HIV-1 92RW020 envelope glycoprotein (Env) on pseudovirus (HIV-1).
Experiment [7] has as its target HIV-1 APV13 envelope glycoprotein (Env) on pseudovirus (HIV-1).
The target in experiment [8] is HIV-1 MGRM-C-027 envelope glycoprotein (Env) on pseudovirus (HIV-1).
In experiment [9] the target is HIV-1 92BR020 envelope glycoprotein (Env) on pseudovirus (HIV-1).
The target of experiment [10] is HIV-1 APV17 envelope glycoprotein (Env) on pseudovirus (HIV-1).
In experiment [11] the target is HIV-1 APV6 envelope glycoprotein (Env) on pseudovirus (HIV-1).
Experiment [12] concerns the target HIV-1 MGRM-A-010 envelope glycoprotein (Env) on pseudovirus (HIV-1).
The target of experiment [13] is HIV-1 JRFL envelope glycoprotein (Env) on pseudovirus (HIV-1).
For experiment [14], the target named is HIV-1 93IN905 envelope glycoprotein (Env) on pseudovirus (HIV-1).
For experiment [15], the target named is HIV-1 94UG103 envelope glycoprotein (Env) on pseudovirus (HIV-1).
Experiment [16] deals with HIV-1 Env of pseudovirus JRCSF (HIV-1) (UniProt P20871).
The target in experiment [17] is HIV-1 Env of pseudovirus 92TH021 (HIV-1).
Experiment [18] deals with HIV-1 Env of pseudovirus MGRM-C-26 (HIV-1).
The target of experiment [19] is HIV-1 Env of pseudovirus 94UG103 (HIV-1).
For experiment [20], the target named is HIV-1 Env of pseudovirus 92BR020 (HIV-1).

Chain of PGT-136 monoclonal antibody (5329_C19; 5366_P21) (VH): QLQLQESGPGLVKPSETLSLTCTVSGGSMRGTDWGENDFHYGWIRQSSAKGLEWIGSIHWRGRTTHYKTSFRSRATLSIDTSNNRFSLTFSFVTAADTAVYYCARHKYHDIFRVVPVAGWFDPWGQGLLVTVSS
Chain of PGT-136 monoclonal antibody (5329_C19; 5366_P21) (VL): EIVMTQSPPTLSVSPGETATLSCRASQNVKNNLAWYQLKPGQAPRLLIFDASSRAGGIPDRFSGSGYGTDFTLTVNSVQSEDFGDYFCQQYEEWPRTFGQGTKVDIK

On to “PGT-136 monoclonal antibody (5329_C19; 5366_P21)”, for which the IC50 neutralization in [1] was 0.0065 µg/mL; in experiment [2], above 10 µg/mL; in experiment [3] it was above 10 µg/mL; in experiment [4], above 10 µg/mL; in experiment [5], above 10 µg/mL; in [6], 0.738 µg/mL. Besides, the IC50 neutralization in experiment [7], in [8], in [9], in experiment [10], in experiment [11] and in experiment [12] was above 10 µg/mL throughout. For the same substance, the IC50 neutralization in experiment [13] was above 10 µg/mL; in experiment [14], 0.0135 µg/mL; in [15] it was above 10 µg/mL.

Take “Antibody of B cell culture well 5117_E22 (labelled PGT-133 in Table 26)”: the Primary Neutralization Index (B cell culture supernatant) in [16] amounted to 3.6; in experiment [17] it was 42.5; in experiment [18], 3.4.

PGT-130 monoclonal antibody (5147_N06): the IC50 neutralization in experiment [1] is 0.0173 µg/mL; in experiment [2] it was above 10 µg/mL; in experiment [3], above 10 µg/mL; in [4], above 10 µg/mL; in experiment [5], 0.0089 µg/mL; in [6] it was 0.014 µg/mL. The IC50 neutralization is 0.0345 µg/mL in experiment [7]; 0.0052 µg/mL in [8]; 1.12 µg/mL in [9]; above 10 µg/mL in experiment [10]; above 10 µg/mL in [11]; 0.0054 µg/mL in experiment [12]. Further, the results for the IC50 neutralization in [13], in experiment [14] and in experiment [15] were 0.0346 µg/mL, 0.0182 µg/mL and 0.635 µg/mL, respectively.

As for “PGT-135 monoclonal antibody (5343_B08; 5344_E16)”, the IC50 neutralization in [1] was 0.0123 µg/mL; in experiment [2], 6.79 µg/mL; in experiment [3] it was 2.16 µg/mL; in [4] it was above 10 µg/mL; in experiment [5], 0.113 µg/mL; in experiment [6], 0.157 µg/mL. For the same substance, the IC50 neutralization in experiment [7] was 0.545 µg/mL; in [8] it was above 10 µg/mL; in experiment [9], 0.104 µg/mL; in experiment [10], above 10 µg/mL; in experiment [11], above 10 µg/mL; in experiment [12], above 10 µg/mL. The IC50 neutralization was above 10 µg/mL in [13], 0.0183 µg/mL in [14] and above 10 µg/mL in experiment [15].

As to PGT-123 monoclonal antibody (4858_P08), the IC50 neutralization in [1] is 0.0031 µg/mL; in [2], above 10 µg/mL; in [3], 0.443 µg/mL; in experiment [4], 0.0303 µg/mL; in experiment [5], 0.0423 µg/mL; in experiment [6], 0.0038 µg/mL. Also, the IC50 neutralization in experiment [7] was 0.222 µg/mL; in experiment [8], 0.0169 µg/mL; in experiment [9], 0.013 µg/mL; in experiment [10], 0.18 µg/mL; in [11], 0.0328 µg/mL; in experiment [12], 0.492 µg/mL. Besides, the IC50 neutralization in experiment [13] is 0.0283 µg/mL; in experiment [14] it was 0.0071 µg/mL; in experiment [15], 0.846 µg/mL.

Turning to “1496_C09 (PG9) (TCN-109) monoclonal antibody”, the IC50 neutralization in [1] is 0.113 µg/mL; in experiment [2] it was 0.687 µg/mL; in experiment [3] it was 0.121 µg/mL; in experiment [5] it was 0.0048 µg/mL; in [6] it was 0.161 µg/mL; in [8] it was 2.45 µg/mL. Also, the IC50 neutralization is 0.214 µg/mL in [11], 0.0375 µg/mL in [12], 0.048 µg/mL in [14] and 0.31 µg/mL in experiment [15].

In the case of PGT-126 monoclonal antibody (5141_B17), the IC50 neutralization in experiment [1] was 0.0076 µg/mL; in experiment [2], above 10 µg/mL; in experiment [3], 0.283 µg/mL; in experiment [4], 0.0256 µg/mL; in experiment [5] it was 0.0061 µg/mL; in experiment [6] it was 0.0046 µg/mL. In addition, the IC50 neutralization in [7] came out at 0.012 µg/mL; in [8], 1.14 µg/mL; in experiment [9], 0.0163 µg/mL; in [10], 0.501 µg/mL; in experiment [11] it was 0.0249 µg/mL; in [12] it was 0.0033 µg/mL. The figures for the IC50 neutralization in experiment [13], in experiment [14] and in experiment [15] were 0.014 µg/mL, 0.0194 µg/mL and 0.0091 µg/mL, respectively.

Turning to PGT-122 monoclonal antibody (4877_D15), the IC50 neutralization was 0.0089 µg/mL in experiment [1]; above 10 µg/mL in experiment [2]; 2.06 µg/mL in experiment [3]; 0.191 µg/mL in experiment [4]; 0.0727 µg/mL in [5]; 0.0072 µg/mL in experiment [6]. Moreover, the IC50 neutralization amounted to 0.992 µg/mL in experiment [7]; 0.0388 µg/mL in experiment [8]; 0.0337 µg/mL in experiment [9]; 0.522 µg/mL in experiment [10]; 0.0851 µg/mL in experiment [11]; 1.68 µg/mL in experiment [12]. Also, the IC50 neutralization stood at 0.0471 µg/mL in [13], 0.0138 µg/mL in experiment [14] and 1.46 µg/mL in [15].

For “Antibody of B cell culture well 5113_D22 (labelled PGT-132 in Table 26)”, the Primary Neutralization Index (B cell culture supernatant) stood at 3 in experiment [16], 51 in experiment [17] and 6 in experiment [18].

Turning to “PGT-121 (B cell culture wells 4838_L06 and 4873_E03) (antibody)”, the Primary Neutralization Index (B cell culture supernatant) in experiment [19] is 1.4 and 0.8; in experiment [20], 4.9 and 3.6; in experiment [16] it was 3.2 and 2.2; in [18] it was 996 and 371.

“PGT-122 (B cell culture well 4877_D15) (antibody)”: the Primary Neutralization Index (B cell culture supernatant) in experiment [19] worked out at 1.3; in experiment [20], 5.4; in experiment [16] it was 2.3; in experiment [18] it was 37.5.

On to PGT-125 monoclonal antibody (5123_A06), for which the IC50 neutralization is 0.0106 µg/mL in experiment [1]; above 10 µg/mL in [2]; 5.78 µg/mL in [3]; 0.0262 µg/mL in [4]; 0.006 µg/mL in experiment [5]; 0.0028 µg/mL in experiment [6]. Further, the IC50 neutralization is 0.0128 µg/mL in [7]; above 10 µg/mL in [8]; 0.0214 µg/mL in [9]; 7.31 µg/mL in [10]; 0.0359 µg/mL in experiment [11]; 0.0055 µg/mL in experiment [12]. In addition, the IC50 neutralization worked out at 0.0156 µg/mL in experiment [13], 0.0137 µg/mL in [14] and 0.0124 µg/mL in experiment [15].

Consider “PGT-121 monoclonal antibody (4838_L06; 4873_E03)”, for which the IC50 neutralization in [2] is above 10 µg/mL.
